Assay results: the RNAGym collection of RNA variant scans (doi:10.1021/acssynbio.7b00057)

B1: Pistol ribozyme (parent)
chain: GGGUCGUUGUUCCAUAAUCGCGUGGAUAUGGCACGCAAGUUUCUACCGGGCACCGUAAAUGUCCGACUGGAGCCGUUCGGGCGGCUAUAAACAGACCUCAGGCCCGAAGCGUGGCGGCACCUGCCGCCGGUGGUAAAAAAGAUCGGAAGAGCACACGUCU

Variants of: B1
Test: aptazyme ON/OFF ratio, guanine; higher = stronger switching; co-transcriptional cleavage with and without guanine

Row | Variant | aptazyme ON/OFF ratio
1 | U7G U10C U11A C12A C13G | 1.06
2 | U7G U10C U11A C12A C13A | 1.17
3 | U7G U10C U11A C12A C13U | 1.16
4 | U7G U10C U11G C13U | 1.14
5 | U7G U10C U11G C13A | 1.08
6 | U7G U10C U11G C13G | 1.09
7 | U7G U10C U11A C12A | 1.18
8 | U7G U10C U11A C12U | 1.2
9 | U7G U10C U11A C12G | 1.18
10 | U7G U10A U11C C12U C13A | 1.12
11 | U7G U10A U11C C12U C13G | 1.05
12 | U7G U10A U11C C12U C13U | 1.08
13 | U7G U8G U10G C12U C13A | 1
14 | U7G U8G U10G C12U C13G | 1.04
15 | U7G U8G U10G C12U C13U | 1.32
16 | U7G U8G U10A U11G | 1.65
17 | U7G U10G C12A C13A | 1.09
18 | U7G U10G C12A C13G | 1.11
19 | U7G U10G C12A C13U | 1.34
20 | U7G U8G U11G C12U C13G | 1.26
21 | U7G U8G U11G C12U C13U | 1.37
22 | U7G U8G U11G C12U C13A | 1.5
23 | U7G U10A C13U | 1.16
24 | U7G U10A C13G | 1.12

Row | Variant | aptazyme ON/OFF ratio
25 | U7G U10A C13A | 1.13
26 | U7G U10A C12G C13A | 1.15
27 | U7G U10A C12G C13U | 1.17
28 | U7G U10A C12G C13G | 1.2
29 | U7G U8G U10A U11C C12G C13U | 1.29
30 | U7G U10A U11G C12A C13A | 1.06
31 | U7G U10A U11G C12A C13G | 1.09
32 | U7G U10A U11G C12A C13U | 1.11
33 | U7G U10C U11G C12A C13G | 1.07
34 | U7G U10C U11G C12A C13U | 1.11
35 | U7G U10C U11G C12A C13A | 1.11
36 | U7G U8G U10G U11A C13G | 1.18
37 | U7G U8G U10G U11A C13A | 1.21
38 | U7G U8G U10G U11A C13U | 1.24
39 | U7G U10C U11G C12G C13A | 1.11
40 | U7G U10C U11G C12G C13G | 1.07
41 | U7G U10C U11G C12G C13U | 1.05
42 | U7G U8G U11G C13A | 1.21
43 | U7G U8G U11G C13G | 1.39
44 | U7G U8G U11G C13U | 1.28
45 | U7G U8G U10G U11C C12U C13U | 1.36
46 | U7G U8G U10G U11C C12U C13A | 1.12
47 | U7G U8G U10G U11C C12U C13G | 1.15
48 | U7G U10C U11G | 1.22

Row | Variant | aptazyme ON/OFF ratio
49 | U7G U10C U11A | 1.32
50 | U7G U10C U11C | 1.07
51 | U7G U10A U11C C12A | 1.16
52 | U7G U10A U11C C12U | 1.05
53 | U7G U10A U11C C12G | 1.3
54 | U7G U8G U10G U11G C12U C13A | 1.13
55 | U7G U8G U10G U11G C12U C13U | 1.32
56 | U7G U8G U10G U11G C12U C13G | 1.13
57 | U7G U8G U10A U11G C12A | 1.16
58 | U7G U8G U10A U11G C12G | 1.2
59 | U7G U8G U10A U11G C12U | 1.38
60 | U7G U10C U11C C12A C13U | 1.11
61 | U7G U10C U11C C12A C13G | 1.08
62 | U7G U10C U11C C12A C13A | 1.08
63 | U7G U10C U11C C12G | 1.13
64 | U7G U10C U11C C12A | 1.1
65 | U7G U10C U11C C12U | 1.12
66 | U7G U8G U10C C12G C13U | 1.33
67 | U7G U8G U10C C12G C13A | 1.4
68 | U7G U8G U10C C12G C13G | 1.54
69 | U7G U8G U10A U11C C12U | 1.42
70 | U7G U10C C12A C13U | 1.12
71 | U7G U10C C12A C13A | 1.1
72 | U7G U10C C12A C13G | 1.1

Row | Variant | aptazyme ON/OFF ratio
73 | U7G U8G U10G U11G C12G C13G | 1.18
74 | U7G U8G U10G U11G C12G C13A | 1.42
75 | U7G U8G U10G U11G C12G C13U | 1.31
76 | U7G U10C U11A C12U C13U | 1.1
77 | U7G U10C U11A C12U C13A | 1.12
78 | U7G U10C U11A C12U C13G | 1.11
79 | U7G U10C C13G | 1.04
80 | U7G U10C C13A | 1.04
81 | U7G U10C C13U | 1.03
82 | U7G U8G U10A U11G C12A C13A | 1.05
83 | U7G U8G U10A U11G C12A C13G | 1.15
84 | U7G U8G U10A U11G C12A C13U | 1.37
85 | U7G U8G U10C U11G | 1.56
86 | U7G U8G U10C U11A | 1.74
87 | U7G U8G U10C U11C | 2.2
88 | U7G U8G U10C | 1.38
89 | U7G U8G U10G | 1.37
90 | U7G U8G U10G U11C C12A | 1.17
91 | U7G U8G U10G U11C C12G | 1.29
92 | U7G U8G U10G U11C C12U | 1.24
93 | U7G U8G U10C U11A C13G | 1.38
94 | U7G U8G U10C U11A C13U | 1.47
95 | U7G U8G U10C U11A C13A | 1.38
96 | U7G U8G U11A C12G C13G | 1.15

Row | Variant | aptazyme ON/OFF ratio
97 | U7G U8G U11A C12G C13U | 1.33
98 | U7G U8G U11A C12G C13A | 1.11
99 | U7G U8G U11C | 1.35
100 | U7G U8G U11A | 1.67
101 | U7G U8G U11G | 2.52
102 | U7G U8G U10G U11C C12A C13G | 1.3
103 | U7G U8G U10G U11C C12A C13U | 1.46
104 | U7G U8G U10G U11C C12A C13A | 1.53
105 | U7G U10A U11C C13A | 1.04
106 | U7G U10A U11C C13G | 1.02
107 | U7G U10A U11C C13U | 1.02
108 | U7G U8G U10G U11G C12A | 1.23
109 | U7G U8G U10G U11G C12U | 1.36
110 | U7G U8G U10G U11G C12G | 1.26
111 | U7G U10C C12U C13A | 1.04
112 | U7G U10C C12U C13G | 1.06
113 | U7G U10C C12U C13U | 1.07
114 | U7G U8G U11C C12U | 1.37
115 | U7G U8G U11C C12G | 1.15
116 | U7G U8G U11C C12A | 1.31
117 | U7G U8G U10A U11G C12G C13G | 1.23
118 | U7G U8G U10A U11G C12G C13U | 1.22
119 | U7G U8G U10A U11G C12G C13A | 1.15
120 | U7G U10A U11G C12U C13A | 1.17

Row | Variant | aptazyme ON/OFF ratio
121 | U7G U10A U11G C12U C13U | 1.28
122 | U7G U10A U11G C12U C13G | 1.22
123 | U7G U8G U10C C13U | 1.81
124 | U7G U8G U10C C13A | 1.33
125 | U7G U8G U10C C13G | 1.17
126 | U7G U8G U11C C12U C13A | 1.38
127 | U7G U8G U11C C12U C13U | 1.44
128 | U7G U8G U11C C12U C13G | 1.3
129 | U7G U8G U11G C12G C13G | 1.21
130 | U7G U8G U11G C12G C13U | 1.09
131 | U7G U8G U11G C12G C13A | 1.18
132 | U7G U10C | 1.5
133 | U7G U10G | 1.42
134 | U7G U10A | 1.18
135 | U7G U8G U10C U11G C13U | 1.47
136 | U7G U8G U10C U11G C13G | 1.21
137 | U7G U8G U10C U11G C13A | 1.26
138 | U7G U8G U10A U11G C12U C13A | 1.23
139 | U7G U8G U10A U11G C12U C13U | 1.22
140 | U7G U8G U10A U11G C12U C13G | 1.36
141 | U7G U8G U11A C12A C13A | 1.34
142 | U7G U8G U11A C12A C13G | 1.02
143 | U7G U8G U11A C12A C13U | 1.15
144 | U7G U8G U10A U11G C13G | 1.18

Row | Variant | aptazyme ON/OFF ratio
145 | U7G U8G U10A U11G C13A | 1.18
146 | U7G U8G U10A U11G C13U | 1.33
147 | U7G U10A U11A C12G C13U | 1.16
148 | U7G U10A U11A C12G C13A | 1.05
149 | U7G U10A U11A C12G C13G | 1.16
150 | U7G U8G U10G U11A C12U | 1.36
151 | U7G U8G U10G U11A C12G | 1.43
152 | U7G U8G U10G U11A C12A | 1.18
153 | U7G U8G U10C C12A C13G | 1.27
154 | U7G U8G U10C C12A C13U | 1.28
155 | U7G U8G U10C C12A C13A | 1.45
156 | U7G U8G U11C C13G | 1.27
157 | U7G U8G U11C C13A | 1.41
158 | U7G U8G U11C C13U | 1.25
159 | U7G U10A U11A C12A C13U | 1.07
160 | U7G U10A U11A C12A C13A | 1.14
161 | U7G U10A U11A C12A C13G | 1.11
162 | U7G U8G U10C U11C C12G C13A | 1.24
163 | U7G U8G U10C U11C C12G C13U | 1.45
164 | U7G U8G U10C U11C C12G C13G | 1.2
165 | U7G U10A U11G C12G C13A | 1.18
166 | U7G U10A U11G C12G C13G | 1.26
167 | U7G U10A U11G C12G C13U | 1.63
